The data set deals with ATP. Put plainly: switch fluorescence ratio, 500 uM ATP over buffer (Cy3 cluster intensity, sum of 5 cycles each) (fold (ratio)); higher = stronger signal-on switching upon ATP binding; sequences stand for … in TCGTCGGCAGCGTCAGATGTGTATAAGAGACAGTTTTTTTTTTTTTTTTTTTTTTTTT…TC. The settings on record: aptamer strand: ATP DNA aptamer (quencher-CACCTGGGGGAGTATTGCGGAGGAAGG + anchor), 100 nM annealed; ATP concentration: 500 uM. Summed up: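 Clusters carrying Cy3-labelled switching strands on a modified Illumina MiSeq flow-cell were annealed to 100 nM quencher-labelled ATP aptamer and imaged in selection buffer. They were imaged again after 15 min with 500 uM ATP at 22 °C, over five buffer/ATP cycles with NaOH stripping and re-annealing in between. For each cluster, the fluorescence ratio is the summed Cy3 intensity of the target cycles divided by that of the buffer cycles, averaged per switch-domain sequence. Clusters outside 100-1000 RFU were left out.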

± gives the standard deviation of the averaged measurements.
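Further: ATP exposure 15 min at 22 °C before imaging.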

In the case of TTTTATGGAG, the switch fluorescence ratio came to 0.998 ± 0.013.

For TTTTATGGT, the switch fluorescence ratio came to 1.013 ± 0.0067.

TTTTATTAGT: the switch fluorescence ratio amounted to 0.989 ± 0.044.

As to TTTTATTCTG, the switch fluorescence ratio stood at 1.01 ± 0.038.

In the case of TTTTATTGAA, the switch fluorescence ratio is 1 ± 0.03.

Turning to TTTTATTGTA, the switch fluorescence ratio was found to be 0.999 ± 0.032.

Regarding TTTTATTGTG, the switch fluorescence ratio is 1 ± 0.027.

As for TTTTATTTTA, the switch fluorescence ratio was 0.991 ± 0.039.

For the sequence TTTTATTTTG, the switch fluorescence ratio stood at 1.01 ± 0.057.

Regarding TTTTCAACGG, the switch fluorescence ratio was 1.01 ± 0.0017.

Consider TTTTCAAGGG, for which the switch fluorescence ratio was 0.967 ± 0.015.

For the sequence TTTTCACTCG, the switch fluorescence ratio was determined as 1.006 ± 0.0038.

In the case of TTTTCAGATG, the switch fluorescence ratio is 1.02 ± 0.015.

Take TTTTCATGGC: the switch fluorescence ratio amounted to 1.06 ± 0.018.

For the sequence TTTTCCTGCG, the switch fluorescence ratio is 1.65 ± 0.64.

As for TTTTCGATGT, the switch fluorescence ratio came out at 0.994 ± 0.042.

On to TTTTCGGGGC, for which the switch fluorescence ratio is 0.981 ± 0.035.

On to TTTTCGGGGG, for which the switch fluorescence ratio was 1 ± 0.04.

On to TTTTCGTAAT, for which the switch fluorescence ratio amounted to 2.26 ± 1.9.

Turning to TTTTCGTAGC, the switch fluorescence ratio was 1.09 ± 0.14.

TTTTCGTAGG: the switch fluorescence ratio was 0.983 ± 0.011.

In the case of TTTTCGTC, the switch fluorescence ratio turned out to be 0.978 ± 0.03.

Regarding TTTTCGTGCT, the switch fluorescence ratio was determined as 0.956 ± 0.05.

As for TTTTCGTTCG, the switch fluorescence ratio was 1.01 ± 0.059.

TTTTCTAGTA: the switch fluorescence ratio was determined as 0.983 ± 0.038.

For TTTTCTCCGA, the switch fluorescence ratio was 1.2 ± 0.26.

Regarding TTTTCTCCTC, the switch fluorescence ratio was found to be 1.31 ± 0.35.

Turning to TTTTCTCTAG, the switch fluorescence ratio stood at 1.01 ± 0.055.

Regarding TTTTCTCTTA, the switch fluorescence ratio amounted to 1.0182 ± 0.00039.

Take TTTTCTGGCT: the switch fluorescence ratio was 1.04 ± 0.035.

As for TTTTCTGGGG, the switch fluorescence ratio was 0.994 ± 0.032.

On to TTTTCTGTGG, for which the switch fluorescence ratio came to 0.994 ± 0.035.

Take TTTTGAACAA: the switch fluorescence ratio came out at 1.02 ± 0.039.

For TTTTGAAGCC, the switch fluorescence ratio was 1.03 ± 0.014.

In the case of TTTTGAAGCG, the switch fluorescence ratio worked out at 0.99 ± 0.024.

For TTTTGACTGC, the switch fluorescence ratio came to 0.977 ± 0.05.

Consider TTTTGAGGGT, for which the switch fluorescence ratio amounted to 0.99 ± 0.023.

With TTTTGAGGTA, the switch fluorescence ratio was 1.05 ± 0.023.

In the case of TTTTGAGTAC, the switch fluorescence ratio was 1.01 ± 0.042.

Consider TTTTGAGTGG, for which the switch fluorescence ratio came out at 0.995 ± 0.025.

In the case of TTTTGAGTTT, the switch fluorescence ratio amounted to 0.984 ± 0.028.

In the case of TTTTGATATC, the switch fluorescence ratio was 0.997 ± 0.012.

In the case of TTTTGATTAC, the switch fluorescence ratio was found to be 1.01 ± 0.065.

Consider TTTTGCAAGC, for which the switch fluorescence ratio is 1.14 ± 0.13.

For TTTTGCATTC, the switch fluorescence ratio amounted to 1.1 ± 0.053.

As to TTTTGCATTT, the switch fluorescence ratio was 1.04 ± 0.055.

TTTTGCCATA: the switch fluorescence ratio was 1.02 ± 0.042.

In the case of TTTTGCCCGA, the switch fluorescence ratio is 0.988 ± 0.029.

As to TTTTGCCGAG, the switch fluorescence ratio was found to be 0.994 ± 0.011.

Regarding TTTTGCCTTC, the switch fluorescence ratio amounted to 1.09 ± 0.027.

With TTTTGCCTTG, the switch fluorescence ratio was 0.967 ± 0.043.

As for TTTTGCGGAT, the switch fluorescence ratio is 1.04 ± 0.015.

On to TTTTGCTCGG, for which the switch fluorescence ratio is 0.998 ± 0.025.

As to TTTTGCTTGG, the switch fluorescence ratio was 1.01 ± 0.015.

For the sequence TTTTGGAAAT, the switch fluorescence ratio was 1.02 ± 0.027.

As for TTTTGGACGG, the switch fluorescence ratio stood at 1.01 ± 0.032.

With TTTTGGAGC, the switch fluorescence ratio came to 1.05 ± 0.068.

Consider TTTTGGATTG, for which the switch fluorescence ratio is 0.986 ± 0.026.

Regarding TTTTGGCAGA, the switch fluorescence ratio came out at 0.982 ± 0.047.

As for TTTTGGCATG, the switch fluorescence ratio is 1.03 ± 0.034.

On to TTTTGGCGC, for which the switch fluorescence ratio is 1.002 ± 0.0012.

For the sequence TTTTGGCTAT, the switch fluorescence ratio turned out to be 1.017 ± 0.0015.

On to TTTTGGGAAA, for which the switch fluorescence ratio is 0.989 ± 0.044.

As for TTTTGGGACG, the switch fluorescence ratio was determined as 0.993 ± 0.082.

As to TTTTGGGATG, the switch fluorescence ratio was found to be 0.978 ± 0.033.

For the sequence TTTTGGGATT, the switch fluorescence ratio amounted to 1.03 ± 0.06.

For the sequence TTTTGGGGCT, the switch fluorescence ratio came out at 1.01 ± 0.03.

For TTTTGGGGGC, the switch fluorescence ratio was found to be 1.01 ± 0.023.

In the case of TTTTGGGTC, the switch fluorescence ratio was 0.999 ± 0.034.

For TTTTGGGTCG, the switch fluorescence ratio stood at 1.03 ± 0.025.

On to TTTTGGGTGA, for which the switch fluorescence ratio stood at 1.01 ± 0.024.

Consider TTTTGGTACT, for which the switch fluorescence ratio worked out at 0.984 ± 0.027.

As for TTTTGGTAGC, the switch fluorescence ratio came to 1.01 ± 0.017.

Take TTTTGGTCGA: the switch fluorescence ratio was 1.03 ± 0.022.

Take TTTTGGTGCT: the switch fluorescence ratio amounted to 1.01 ± 0.03.

As for TTTTGGTGGT, the switch fluorescence ratio came to 1.01 ± 0.024.

As to TTTTGGTGTG, the switch fluorescence ratio was 1.01 ± 0.026.

Consider TTTTGTAAGC, for which the switch fluorescence ratio stood at 1.04 ± 0.083.

With TTTTGTAAGT, the switch fluorescence ratio worked out at 0.992 ± 0.029.

With TTTTGTACAT, the switch fluorescence ratio was found to be 0.99 ± 0.039.

Consider TTTTGTACGT, for which the switch fluorescence ratio was 1.02 ± 0.041.

With TTTTGTATAT, the switch fluorescence ratio was 1.01 ± 0.025.

Take TTTTGTCGTT: the switch fluorescence ratio stood at 1.03 ± 0.095.

Consider TTTTGTGAGC, for which the switch fluorescence ratio came out at 0.996 ± 0.021.

Regarding TTTTGTGGAT, the switch fluorescence ratio was 1.05 ± 0.053.

Turning to TTTTGTGGTG, the switch fluorescence ratio was 1.001 ± 0.007.

With TTTTGTGTCA, the switch fluorescence ratio amounted to 0.969 ± 0.029.

TTTTGTGTGG: the switch fluorescence ratio was 1.01 ± 0.026.

Regarding TTTTGTTATT, the switch fluorescence ratio came to 1.03 ± 0.068.

Consider TTTTGTTGAT, for which the switch fluorescence ratio was 1.03 ± 0.052.

On to TTTTTAAAAC, for which the switch fluorescence ratio is 1.003 ± 0.0097.

Consider TTTTTAAAG, for which the switch fluorescence ratio is 1.022 ± 0.0083.

With TTTTTAACTA, the switch fluorescence ratio was found to be 0.993 ± 0.012.

As for TTTTTAACTT, the switch fluorescence ratio stood at 0.995 ± 0.022.

On to TTTTTACAAT, for which the switch fluorescence ratio came to 1.01 ± 0.039.

Take TTTTTACGCA: the switch fluorescence ratio came out at 1.154 ± 0.0098.

For the sequence TTTTTACGTT, the switch fluorescence ratio came out at 1.03 ± 0.021.

Consider TTTTTAGACT, for which the switch fluorescence ratio amounted to 1 ± 0.038.

Consider TTTTTAGATA, for which the switch fluorescence ratio amounted to 0.973 ± 0.038.

Turning to TTTTTAGATC, the switch fluorescence ratio was found to be 1.004 ± 0.0088.

For TTTTTAGGAC, the switch fluorescence ratio was found to be 0.997 ± 0.014.

With TTTTTAGGG, the switch fluorescence ratio turned out to be 0.983 ± 0.034.

With TTTTTAGTCT, the switch fluorescence ratio amounted to 1 ± 0.027.

TTTTTATGTT: the switch fluorescence ratio worked out at 0.99 ± 0.032.

TTTTTATTTA: the switch fluorescence ratio turned out to be 0.991 ± 0.025.

As for TTTTTCAAAT, the switch fluorescence ratio amounted to 1.04 ± 0.076.

Turning to TTTTTCACG, the switch fluorescence ratio is 1 ± 0.04.

For the sequence TTTTTCCACG, the switch fluorescence ratio came out at 1.03 ± 0.018.

TTTTTCCCCA: the switch fluorescence ratio is 1.05 ± 0.042.

Consider TTTTTCCCTT, for which the switch fluorescence ratio was found to be 1.01 ± 0.034.

On to TTTTTCGAAG, for which the switch fluorescence ratio was 0.9894 ± 0.0098.

TTTTTCGGAT: the switch fluorescence ratio was 1.05 ± 0.14.

For TTTTTCGGGC, the switch fluorescence ratio is 1.08 ± 0.24.

On to TTTTTCGGGT, for which the switch fluorescence ratio stood at 0.974 ± 0.018.

Turning to TTTTTCTACA, the switch fluorescence ratio was determined as 1.11 ± 0.12.

In the case of TTTTTCTCGA, the switch fluorescence ratio stood at 0.991 ± 0.034.

As to TTTTTCTGTT, the switch fluorescence ratio stood at 0.984 ± 0.039.

In the case of TTTTTGAAAA, the switch fluorescence ratio amounted to 1.018 ± 0.0055.

TTTTTGACTT: the switch fluorescence ratio amounted to 1.005 ± 0.0092.

As for TTTTTGAGTG, the switch fluorescence ratio was determined as 0.976 ± 0.02.

Source of the values: the supplement of paper PMC10126150.
